Patent publication US20160362487A1 (Regeneron, published 2016)

T1: human IL-33 (R&D Systems, #3625-IL-010/CF) (human, UniProt O95760 112-270)
T1 construct: Commercial recombinant protein; also called hIL-33; interleukin-33
T1 sequence (looked up): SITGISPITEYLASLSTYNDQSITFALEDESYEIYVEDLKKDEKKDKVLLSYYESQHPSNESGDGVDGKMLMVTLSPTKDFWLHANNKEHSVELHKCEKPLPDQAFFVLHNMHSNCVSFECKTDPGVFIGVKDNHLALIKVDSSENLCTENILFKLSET

T2: cynomolgus monkey IL-33 expressed with a C-terminal hexahistidine tag (cynomolgus monkey)
T2 construct: also called MfIL-33-6His; Mf-IL-33-6His
T2 chain: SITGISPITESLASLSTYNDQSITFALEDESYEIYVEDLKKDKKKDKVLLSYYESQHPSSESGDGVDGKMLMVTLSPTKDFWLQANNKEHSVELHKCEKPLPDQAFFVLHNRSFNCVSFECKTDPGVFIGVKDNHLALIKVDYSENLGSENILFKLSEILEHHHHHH


Experiments:
[1] = target: T1, human IL-33 (R&D Systems, …); assay: BLI; hIL-33 pre-mixed with mAb-2 H1M9565N
Experimental: (§1) Binding competition between a panel of different anti-IL-33 monoclonal antibodies was determined using a real time, label-free bio-layer interferometry assay on an Octet® HTX biosensor (ForteBio, A Division of Pall Life Sciences). The experiment was performed at 25° C. using a buffer of 0.01M HEPES pH7.4, 0.15M NaCl, 0.05% v/v Surfactant Tween-20, and 0.1 mg/ml BSA (HBS-ET kinetics buffer) with the plate shaking at a speed of 1000 rpm. To assess whether two antibodies were able to compete with one another for binding to human IL-33, a pre-mix assay format was used where 100 nM of human IL-33 (R&D Systems; #3625-IL-010/CF) was pre-mixed with 500 nM of different anti-IL-33 monoclonal antibodies (subsequently referred to as mAb-2) for at least 2 hours prior to running the binding competition assay. […] Following the capture step, unoccupied anti-mouse Fc polyclonal antibody and anti-human Fc polyclonal antibody on the Octet biosensors were saturated by submerging them for 4 minutes into wells containing 200 μg/mL of a non-specific monoclonal antibody with a mouse Fc or with a human Fc, respectively. Finally, the Octet biosensors were immersed for 4 minutes into wells containing the pre-mixed samples of 100 nM of human IL-33 and 500 nM of mAb-2. At the end of each cycle, the non-covalently captured anti-IL-33 antibodies along with the bound pre-complex of human IL-33 and mAb-2 were removed from the biosensors using three alternate 20 second immersions into 10 mM HCl followed by submerging into HBS-ET kinetics buffer. The biosensors were washed in HBS-ET kinetics buffer in between every step of the experiment. The real-time binding response was monitored during the binding events, and the binding response (in units of nm) at the end of every step was recorded.

[2] = target: T1, human IL-33 (R&D Systems, …); assay: BLI; hIL-33 pre-mixed with mAb-2 Isotype control 1
Experimental: as §1

[3] = target: T3, pre-formed complex of hIL-33 and captured hST2-MMH (human, UniProt O95760 112-270); assay: SPR 25C, 100 nM mAb over hIL-33/hST2-MMH complex
T3 construct: Ligand-receptor complex on the sensor: hST2-MMH captured by anti-myc mAb and saturated with 100 nM hIL-33; also called hIL-33 pre-complexed with hST2-MMH
Experimental: The ability of anti-IL-33 antibodies to bind to a pre-formed complex of IL-33 with ST2 was tested using Biacore T-200 instrument equipped with a real-time surface plasmon resonance biosensor. The experiment was performed at 25° C. with a running buffer composed of 0.01M HEPES pH 7.4, 0.15M NaCl, 3 mM EDTA, and 0.05% v/v Surfactant Tween-20 (HBS-ET). […] The captured hST2-MMH surface was then saturated by injecting 100 nM of human IL-33 (hIL-33; R&D Systems, #3625-IL-010/CF) for 3 minutes followed by a 3 minute injection of a 100 nM solution of the anti-IL-33 monoclonal antibody. The real-time binding response was monitored during the entire course of the experiment, and the observed binding response at 3 minutes after injection of anti-IL-33 antibody to the pre-formed complex of hIL-33 and captured hST2-MMH was recorded and tabulated and shown in Table 7. No non-specific binding of anti-IL-33 monoclonal antibody to the anti-myc tag capture surface was observed.

[4] = target: T2, cynomolgus monkey IL-33 expressed with …; assay: BLI; mAb-1 on captured MfIL-33-6His
Experimental: Binding competition between a panel of different anti-IL-33 monoclonal antibodies was determined using a real time, label-free bio-layer interferometry assay on an Octet® HTX biosensor (ForteBio, A Division of Pall Life Sciences). The experiment was performed at 25° C. using a buffer of 0.01M HEPES pH7.4, 0.15M NaCl, 3 mM EDTA, 0.05% v/v Surfactant Tween-20, and 0.1 mg/ml BSA (HBS-ET kinetics buffer) with the plate shaking at a speed of 1000 rpm. […] The antigen-captured biosensors were then saturated with a first anti-IL-33 monoclonal antibody (subsequently referred to as mAb-1) by immersion into wells containing 50 μg/mL solution of mAb-1 for 5 minutes. The biosensors were then dipped into wells containing a 50 μg/mL solution of a second anti-IL-33 monoclonal antibody (subsequently referred to as mAb-2) for 4 minutes. The biosensors were washed in HBS-ET kinetics buffer in between every step of the experiment. The real-time binding response was monitored during the experiment, and the maximum binding response for each binding step was recorded. The response of mAb-2 binding to MfIL-33-6His pre-complexed with mAb-1 was measured, and competitive/non-competitive behavior of different anti-IL-33 monoclonal antibodies with respect to each other was determined.

| Binder | mAb-1 Binding to the Pre-complex of mAb-2 & hIL-33 [1] [nm] | mAb-1 Binding to the Pre-complex of mAb-2 & hIL-33 [2] [nm] | Antibody Binding Response (RU) [3] [RU] | mAb-1 Binding (nm) [4] [nm] |
| --- | --- | --- | --- | --- |
| H4H9670P (antibody, V domains shown, Human IgG4 Fc (H4H)) VH: EVQLVESGGGLVQPGGSLRLSCAASGFTLSSYAMSWVRQAPGKGLEWVSAISGSGGSTYYADSVKGRFTISRDNSKNSLYLQLNSLRAEDTAVYYCAKTLYTTSWYGGFQHWGQGTLVTVSS VL: DIQMTQSPSSVSASIGDRVTITCRASQGISSWLAWYQQKPGKVPKLLIYAASSLQSGFPSRFSGSGSGTDFTLTISSLQPEDFATYYCQQTHSFPWTVGQGTKVEIK | 0.51 | 0.19 | -1 | 0.56 |
| H4H9672P (antibody, human IgG4, V domains shown, Human IgG4 Fc (H4H)) VH: EVQLVESGGGLVQPGGSLRLSCAASGFTLRSYVMYWVRQGPGKGLEGVSGISGSSGGTYYTDSVKGRFTISRDNSKNTLFLQMNSLRAEDTAVYFCARSVYSTTWYGGFQHWGQGTLVTVSS VL: DIQMTQSPSSVSVSVGDRVTITCRASQVISSWLAWYQLKPGKAPKLLIYAASSLQSGVPSRFSGSGSGTDFTLTISGLQPEDFAVYYCQQTNSFPLTFGGGTKVEIK | 0.52 | 0.16 | -1 | 0.56 |
| H4H9664P (antibody, human IgG4, V domains shown, Human IgG4 Fc (H4H)) VH: QVQLVESGGGVVQPGRSLRLSCAASGFTFSSYGLHWVRQSPGKGLEWVALISYDGSNKYYADSVKGRFTISRDNSKNTLYLQMNSLRPEDTAGYFCAKSLYTTSWYGGFDYWGQGTLVTVSS VL: DIQMTQSPSSVSASVGDRVTITCRASQGIRSWLAWYQQKPGKAPNLLIYAASSLQSGVPSRFSGSGSGTDFTLTISSLQPEDFATYYCQQANSFPPTFGPGTKVDIK | 0.48 | 0.16 | -1 | 0.61 |
| H4H9671P (antibody, human IgG4, V domains shown, Human IgG4 Fc (H4H)) VH: EVQLVESGGGLVQPGGSLRLSCAASGFTLRSYFMTWVRQVPGKGLEGVSAISGISGGTYYTDSVKGRFTISRDNSKNTLFLQMNSLRAEDTAVYFCARTVYSSSYYGGFQHWGQGTLVTVSS VL: DIQMTQSPSSVSVSVGDRVTITCRASQGISSWLAWYQQKPGKAPKLLIYVASSLQSGVPSRFSGSGSGTDFTLTISSLQPEDFATYYCQQTNSFPLTFGGGTKVEIK | 0.57 | 0.13 | -1 | 0.58 |
| H4H9667P (antibody, human IgG4, V domains shown, Human IgG4 Fc (H4H)) VH: EVQLVESGGGLVQPGGSLRLSCAASGFTFSTYSMHWVRQAPGKGLEYVSTINNNGDTTYYADSVKGRFTISRDNSKNTLYLQLGSLRPEDMAVYYCARQTYTSSWYGGFDSWGQGTLVTVSS VL: DIQMTQSPSSVSASVGDRVTITCRASQGITSWLAWYQQKPGKAPKLLIYAASNLQSGVPSRFSGSGSGTDFTLTITSLQPEDFATYYCQQANSLPFTFGPGTKVDIK | 0.48 | 0.23 | -1 | 0.5 |
| H4H9676P (antibody, human IgG4, V domains shown, Human IgG4 Fc (H4H)) VH: EVQLVESGGGLVQPGGSLRLSCSASGFTFSSYAMNWVRQAPGKGLEWVTAISGSGGGTYYADSVKGRFTISRDNSKNSLFLQLNSLRAEDTAVYYCAKQTYTSSWYGGFDIWGQGTMVTVSS VL: DIQMTQSPSSVSASVGDRVTITCRASQGFSSWLAWYQQIPGKAPKLLIYAASRLQSGVPSRFRGSGSGTDFTLTISSLQPEDFATYYCQQANSFPLTFGGGTKVEIK | 0.45 | 0.11 | -1 | 0.62 |
| H4H9666P (antibody, human IgG4, V domains shown, Human IgG4 Fc (H4H)) VH: QVQLVQSGAEVKKPGASVKVSCKASGYTFTSYGISWVRQAPGQGLEWMGWIRAYNGYTNYAQKFQGRVTMTTDTSTNTAYMELRTLNSDDTAVYYCARDRYSGSFHGNFDYWGQGTLVTVSS VL: DIQMTQSPSSVSASVGDRVTITCRASQGIFSWLAWYQQKPGKAPKVLIYAASNLESGVPSRFSGSGSGTDFTLTISSLQPEDFATYYCQQANSLPLTFGGGTKVEIK | 0.56 | 0.15 | -1 | 0.57 |
| H4H9665P (antibody, human IgG4, V domains shown, Human IgG4 Fc (H4H)) VH: EVQLVESGGGLVQPGGSLRLSCAASGFTFSNYAMTWVRQAPGKGLEWVSTISGSGDNTYYADSVQGRFTISRGHSKNTLYLQMNSLRAEDTAVYYCAKPTYSRSWYGAFDFWGQGTMVTVSS VL: DIQMTQSPSSVSASVGDRVTITCRASQGISSWLAWYQQKPGKAPQLLIYAASRLQSGVPSRFWGSGSGTDFTLTISSLQPEDFATYYCQQANNFPFTFGPGTKVDIK | 0.66 | 0.14 | 0 | 0.63 |
| H4H9675P (antibody, human IgG4, V domains shown, Human IgG4 Fc (H4H)) VH: EVQLVESGGNLEQPGGSLRLSCTASGFTFSRSAMNWVRRAPGKGLEWVSGISGSGGRTYYADSVKGRFTISRDNSKNTLYLQMNSLSAEDTAAYYCAKDSYTTSWYGGMDVWGHGTTVTVSS VL: DIQMTQSPSSVSASVGDRVTITCRASQGIFSWLAWYQQKPGKAPKLLIYAASSLQSGVPSRFSGSGSGTDFTLTISSLQPEDFAIYYCQQANSVPITFGQGTRLEIK | 0.51 | 0.13 | -1 | 0.52 |
